Assay results published in publication PMC5737477.

Legend:
[1] = biological target: RAGE (full-length, recombinant);MRE11 (Mus musculus?;, UniProt Q62151;P49959 1-402;1-708, |); assay: EMSA
[2] = biological target: RAGE (full-length, recombinant) (UniProt Q62151 1-402); assay: EMSA
Sequence of RAGE (full-length, recombinant) (Q62151 whole entry): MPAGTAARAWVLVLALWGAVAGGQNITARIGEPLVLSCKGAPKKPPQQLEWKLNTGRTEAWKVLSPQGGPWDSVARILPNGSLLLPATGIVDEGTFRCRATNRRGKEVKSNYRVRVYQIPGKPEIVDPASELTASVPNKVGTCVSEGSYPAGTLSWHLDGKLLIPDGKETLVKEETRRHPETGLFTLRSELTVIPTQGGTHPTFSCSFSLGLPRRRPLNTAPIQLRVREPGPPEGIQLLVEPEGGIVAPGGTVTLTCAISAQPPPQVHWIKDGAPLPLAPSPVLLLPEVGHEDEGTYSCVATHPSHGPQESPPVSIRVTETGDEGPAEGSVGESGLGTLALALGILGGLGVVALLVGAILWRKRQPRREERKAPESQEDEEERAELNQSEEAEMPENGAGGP

Sequence of RAGE (full-length, recombinant);MRE11 (Q62151 whole entry, chain 1 of 2): as the sequence (Q62151 whole entry) above
Sequence of RAGE (full-length, recombinant);MRE11 (P49959 whole entry, chain 2 of 2): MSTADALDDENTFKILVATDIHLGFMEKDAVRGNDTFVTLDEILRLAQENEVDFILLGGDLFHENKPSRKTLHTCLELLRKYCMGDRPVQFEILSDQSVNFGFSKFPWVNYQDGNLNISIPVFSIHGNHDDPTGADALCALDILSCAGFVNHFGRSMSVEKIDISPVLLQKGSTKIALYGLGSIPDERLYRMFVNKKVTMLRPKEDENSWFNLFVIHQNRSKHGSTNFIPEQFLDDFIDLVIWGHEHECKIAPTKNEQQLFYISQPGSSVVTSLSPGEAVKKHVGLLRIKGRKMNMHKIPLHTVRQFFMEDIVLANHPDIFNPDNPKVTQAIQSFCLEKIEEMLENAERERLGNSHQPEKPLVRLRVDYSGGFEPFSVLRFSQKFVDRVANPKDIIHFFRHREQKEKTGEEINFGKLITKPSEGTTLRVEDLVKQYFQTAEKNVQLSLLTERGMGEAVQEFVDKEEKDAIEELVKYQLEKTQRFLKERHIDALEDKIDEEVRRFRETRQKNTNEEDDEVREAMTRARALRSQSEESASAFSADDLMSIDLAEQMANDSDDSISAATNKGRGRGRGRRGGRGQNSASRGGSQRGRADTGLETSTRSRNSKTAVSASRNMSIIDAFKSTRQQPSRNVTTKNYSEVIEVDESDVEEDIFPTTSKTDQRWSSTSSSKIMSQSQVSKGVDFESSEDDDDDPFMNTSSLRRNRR

B1: RAGE EM-F/EM-R 64mer dsDNA probe (dsDNA)
DNA 1: GGACTCCAGGTCCAGGACCGCCGTTTTTCGCGCGCACGGCGCGGGAGGTCCAGCTGGTCCACCTCC
DNA 2: GGAGGTGGACCAGCTGGACCTCCCGCGCCGTGCGCGCGAAAAACGGCGGTCCTGGACCTGGAGTCC
Question: Does B1 bind [1]?
Answer: binds

Question: Does B1 bind [2]?
Answer: binds
